Starred links: 1 amine or outer side, 2 acyl side, 3 side chain; linkers in the order of their positions; H or OH if unused. Non-standard residues stand in square brackets, D forms with d. Groups on a side chain read outwards from the residue. No end group written: not given here. *: point of attachment. γGlu = O=C(O)[C@H](CCC(=O)[*:2])N[*:1]; Palmitoyl = CCCCCCCCCCCCCCCC(=O)*; AEEA = NCCOCCOCC(=O)O; Aib = CC(C)(N)C(=O)O
B1: peptide of SEQ ID NO: 210 (peptide)
peptide: IVLSLD[dV]PIKLK([AEEA-AEEA-γGlu-Palmitoyl])QILLKQERQKK[Aib]RQKAEKNKQILAQV-NH2
modifications: N-terminus assumed
SMILES: CCCCCCCCCCCCCCCC(=O)N[C@@H](CCC(=O)NCCOCCOCC(=O)NCCOCCOCC(=O)NCCCC[C@H](NC(=O)[C@H](CC(C)C)NC(=O)[C@H](CCCCN)NC(=O)[C@@H](NC(=O)[C@@H]1CCCN1C(=O)[C@H](NC(=O)[C@H](CC(=O)O)NC(=O)[C@H](CC(C)C)NC(=O)[C@H](CO)NC(=O)[C@H](CC(C)C)NC(=O)[C@@H](NC(=O)[C@@H](N)[C@@H](C)CC)C(C)C)C(C)C)[C@@H](C)CC)C(=O)N[C@@H](CCC(N)=O)C(=O)N[C@H](C(=O)N[C@@H](CC(C)C)C(=O)N[C@@H](CC(C)C)C(=O)N[C@@H](CCCCN)C(=O)N[C@@H](CCC(N)=O)C(=O)N[C@@H](CCC(=O)O)C(=O)N[C@@H](CCCNC(=N)N)C(=O)N[C@@H](CCC(N)=O)C(=O)N[C@@H](CCCCN)C(=O)N[C@@H](CCCCN)C(=O)NC(C)(C)C(=O)N[C@@H](CCCNC(=N)N)C(=O)N[C@@H](CCC(N)=O)C(=O)N[C@@H](CCCCN)C(=O)N[C@@H](C)C(=O)N[C@@H](CCC(=O)O)C(=O)N[C@@H](CCCCN)C(=O)N[C@@H](CC(N)=O)C(=O)N[C@@H](CCCCN)C(=O)N[C@@H](CCC(N)=O)C(=O)N[C@H](C(=O)N[C@@H](CC(C)C)C(=O)N[C@@H](C)C(=O)N[C@@H](CCC(N)=O)C(=O)N[C@H](C(N)=O)C(C)C)[C@@H](C)CC)[C@@H](C)CC)C(=O)O
B2: peptide of SEQ ID NO: 211 (peptide)
peptide: IVLSLD[dV]PIKLK([AEEA-AEEA-γGlu-γGlu-Palmitoyl])QILLKQERQKK[Aib]RQKAEKNKQILAQV-NH2
modifications: N-terminus assumed
SMILES: CCCCCCCCCCCCCCCC(=O)N[C@@H](CCC(=O)N[C@@H](CCC(=O)NCCOCCOCC(=O)NCCOCCOCC(=O)NCCCC[C@H](NC(=O)[C@H](CC(C)C)NC(=O)[C@H](CCCCN)NC(=O)[C@@H](NC(=O)[C@@H]1CCCN1C(=O)[C@H](NC(=O)[C@H](CC(=O)O)NC(=O)[C@H](CC(C)C)NC(=O)[C@H](CO)NC(=O)[C@H](CC(C)C)NC(=O)[C@@H](NC(=O)[C@@H](N)[C@@H](C)CC)C(C)C)C(C)C)[C@@H](C)CC)C(=O)N[C@@H](CCC(N)=O)C(=O)N[C@H](C(=O)N[C@@H](CC(C)C)C(=O)N[C@@H](CC(C)C)C(=O)N[C@@H](CCCCN)C(=O)N[C@@H](CCC(N)=O)C(=O)N[C@@H](CCC(=O)O)C(=O)N[C@@H](CCCNC(=N)N)C(=O)N[C@@H](CCC(N)=O)C(=O)N[C@@H](CCCCN)C(=O)N[C@@H](CCCCN)C(=O)NC(C)(C)C(=O)N[C@@H](CCCNC(=N)N)C(=O)N[C@@H](CCC(N)=O)C(=O)N[C@@H](CCCCN)C(=O)N[C@@H](C)C(=O)N[C@@H](CCC(=O)O)C(=O)N[C@@H](CCCCN)C(=O)N[C@@H](CC(N)=O)C(=O)N[C@@H](CCCCN)C(=O)N[C@@H](CCC(N)=O)C(=O)N[C@H](C(=O)N[C@@H](CC(C)C)C(=O)N[C@@H](C)C(=O)N[C@@H](CCC(N)=O)C(=O)N[C@H](C(N)=O)C(C)C)[C@@H](C)CC)[C@@H](C)CC)C(=O)O)C(=O)O
B3: peptide of SEQ ID NO: 215 (peptide)
peptide: IVLSLD[dV]PIGLK([γGlu-Palmitoyl])QILLKQERQKK[Aib]REQAETNKQILAQV-NH2
modifications: N-terminus assumed
SMILES: CCCCCCCCCCCCCCCC(=O)N[C@@H](CCC(=O)NCCCC[C@H](NC(=O)[C@H](CC(C)C)NC(=O)CNC(=O)[C@@H](NC(=O)[C@@H]1CCCN1C(=O)[C@H](NC(=O)[C@H](CC(=O)O)NC(=O)[C@H](CC(C)C)NC(=O)[C@H](CO)NC(=O)[C@H](CC(C)C)NC(=O)[C@@H](NC(=O)[C@@H](N)[C@@H](C)CC)C(C)C)C(C)C)[C@@H](C)CC)C(=O)N[C@@H](CCC(N)=O)C(=O)N[C@H](C(=O)N[C@@H](CC(C)C)C(=O)N[C@@H](CC(C)C)C(=O)N[C@@H](CCCCN)C(=O)N[C@@H](CCC(N)=O)C(=O)N[C@@H](CCC(=O)O)C(=O)N[C@@H](CCCNC(=N)N)C(=O)N[C@@H](CCC(N)=O)C(=O)N[C@@H](CCCCN)C(=O)N[C@@H](CCCCN)C(=O)NC(C)(C)C(=O)N[C@@H](CCCNC(=N)N)C(=O)N[C@@H](CCC(=O)O)C(=O)N[C@@H](CCC(N)=O)C(=O)N[C@@H](C)C(=O)N[C@@H](CCC(=O)O)C(=O)N[C@H](C(=O)N[C@@H](CC(N)=O)C(=O)N[C@@H](CCCCN)C(=O)N[C@@H](CCC(N)=O)C(=O)N[C@H](C(=O)N[C@@H](CC(C)C)C(=O)N[C@@H](C)C(=O)N[C@@H](CCC(N)=O)C(=O)N[C@H](C(N)=O)C(C)C)[C@@H](C)CC)[C@@H](C)O)[C@@H](C)CC)C(=O)O
B4: peptide of SEQ ID NO: 206 (peptide)
peptide: IVLSLD[dV]PIKLK([AEEA-AEEA-γGlu-γGlu-Palmitoyl])QILLKQERQK[Aib]QREQAEKNKQILAQV-NH2
modifications: N-terminus assumed
SMILES: CCCCCCCCCCCCCCCC(=O)N[C@@H](CCC(=O)N[C@@H](CCC(=O)NCCOCCOCC(=O)NCCOCCOCC(=O)NCCCC[C@H](NC(=O)[C@H](CC(C)C)NC(=O)[C@H](CCCCN)NC(=O)[C@@H](NC(=O)[C@@H]1CCCN1C(=O)[C@H](NC(=O)[C@H](CC(=O)O)NC(=O)[C@H](CC(C)C)NC(=O)[C@H](CO)NC(=O)[C@H](CC(C)C)NC(=O)[C@@H](NC(=O)[C@@H](N)[C@@H](C)CC)C(C)C)C(C)C)[C@@H](C)CC)C(=O)N[C@@H](CCC(N)=O)C(=O)N[C@H](C(=O)N[C@@H](CC(C)C)C(=O)N[C@@H](CC(C)C)C(=O)N[C@@H](CCCCN)C(=O)N[C@@H](CCC(N)=O)C(=O)N[C@@H](CCC(=O)O)C(=O)N[C@@H](CCCNC(=N)N)C(=O)N[C@@H](CCC(N)=O)C(=O)N[C@@H](CCCCN)C(=O)NC(C)(C)C(=O)N[C@@H](CCC(N)=O)C(=O)N[C@@H](CCCNC(=N)N)C(=O)N[C@@H](CCC(=O)O)C(=O)N[C@@H](CCC(N)=O)C(=O)N[C@@H](C)C(=O)N[C@@H](CCC(=O)O)C(=O)N[C@@H](CCCCN)C(=O)N[C@@H](CC(N)=O)C(=O)N[C@@H](CCCCN)C(=O)N[C@@H](CCC(N)=O)C(=O)N[C@H](C(=O)N[C@@H](CC(C)C)C(=O)N[C@@H](C)C(=O)N[C@@H](CCC(N)=O)C(=O)N[C@H](C(N)=O)C(C)C)[C@@H](C)CC)[C@@H](C)CC)C(=O)O)C(=O)O
B5: peptide of SEQ ID NO: 213 (peptide)
peptide: IVLSLD[dV]PIKLK([γGlu-Palmitoyl])QILLKQERQKKQREKAEKNKQILAQV-NH2
modifications: N-terminus assumed
SMILES: CCCCCCCCCCCCCCCC(=O)N[C@@H](CCC(=O)NCCCC[C@H](NC(=O)[C@H](CC(C)C)NC(=O)[C@H](CCCCN)NC(=O)[C@@H](NC(=O)[C@@H]1CCCN1C(=O)[C@H](NC(=O)[C@H](CC(=O)O)NC(=O)[C@H](CC(C)C)NC(=O)[C@H](CO)NC(=O)[C@H](CC(C)C)NC(=O)[C@@H](NC(=O)[C@@H](N)[C@@H](C)CC)C(C)C)C(C)C)[C@@H](C)CC)C(=O)N[C@@H](CCC(N)=O)C(=O)N[C@H](C(=O)N[C@@H](CC(C)C)C(=O)N[C@@H](CC(C)C)C(=O)N[C@@H](CCCCN)C(=O)N[C@@H](CCC(N)=O)C(=O)N[C@@H](CCC(=O)O)C(=O)N[C@@H](CCCNC(=N)N)C(=O)N[C@@H](CCC(N)=O)C(=O)N[C@@H](CCCCN)C(=O)N[C@@H](CCCCN)C(=O)N[C@@H](CCC(N)=O)C(=O)N[C@@H](CCCNC(=N)N)C(=O)N[C@@H](CCC(=O)O)C(=O)N[C@@H](CCCCN)C(=O)N[C@@H](C)C(=O)N[C@@H](CCC(=O)O)C(=O)N[C@@H](CCCCN)C(=O)N[C@@H](CC(N)=O)C(=O)N[C@@H](CCCCN)C(=O)N[C@@H](CCC(N)=O)C(=O)N[C@H](C(=O)N[C@@H](CC(C)C)C(=O)N[C@@H](C)C(=O)N[C@@H](CCC(N)=O)C(=O)N[C@H](C(N)=O)C(C)C)[C@@H](C)CC)[C@@H](C)CC)C(=O)O
B6: peptide of SEQ ID NO: 216 (peptide)
peptide: IVLSLD[dV]PIGLK([AEEA-AEEA-γGlu-Palmitoyl])QILLKQERQKK[Aib]REQAETNKQILAQV-NH2
modifications: N-terminus assumed
SMILES: CCCCCCCCCCCCCCCC(=O)N[C@@H](CCC(=O)NCCOCCOCC(=O)NCCOCCOCC(=O)NCCCC[C@H](NC(=O)[C@H](CC(C)C)NC(=O)CNC(=O)[C@@H](NC(=O)[C@@H]1CCCN1C(=O)[C@H](NC(=O)[C@H](CC(=O)O)NC(=O)[C@H](CC(C)C)NC(=O)[C@H](CO)NC(=O)[C@H](CC(C)C)NC(=O)[C@@H](NC(=O)[C@@H](N)[C@@H](C)CC)C(C)C)C(C)C)[C@@H](C)CC)C(=O)N[C@@H](CCC(N)=O)C(=O)N[C@H](C(=O)N[C@@H](CC(C)C)C(=O)N[C@@H](CC(C)C)C(=O)N[C@@H](CCCCN)C(=O)N[C@@H](CCC(N)=O)C(=O)N[C@@H](CCC(=O)O)C(=O)N[C@@H](CCCNC(=N)N)C(=O)N[C@@H](CCC(N)=O)C(=O)N[C@@H](CCCCN)C(=O)N[C@@H](CCCCN)C(=O)NC(C)(C)C(=O)N[C@@H](CCCNC(=N)N)C(=O)N[C@@H](CCC(=O)O)C(=O)N[C@@H](CCC(N)=O)C(=O)N[C@@H](C)C(=O)N[C@@H](CCC(=O)O)C(=O)N[C@H](C(=O)N[C@@H](CC(N)=O)C(=O)N[C@@H](CCCCN)C(=O)N[C@@H](CCC(N)=O)C(=O)N[C@H](C(=O)N[C@@H](CC(C)C)C(=O)N[C@@H](C)C(=O)N[C@@H](CCC(N)=O)C(=O)N[C@H](C(N)=O)C(C)C)[C@@H](C)CC)[C@@H](C)O)[C@@H](C)CC)C(=O)O

Target: human corticotropin-releasing factor 2α (CRF2α receptor) (human), Q13324
Sequence (Q13324 20-411): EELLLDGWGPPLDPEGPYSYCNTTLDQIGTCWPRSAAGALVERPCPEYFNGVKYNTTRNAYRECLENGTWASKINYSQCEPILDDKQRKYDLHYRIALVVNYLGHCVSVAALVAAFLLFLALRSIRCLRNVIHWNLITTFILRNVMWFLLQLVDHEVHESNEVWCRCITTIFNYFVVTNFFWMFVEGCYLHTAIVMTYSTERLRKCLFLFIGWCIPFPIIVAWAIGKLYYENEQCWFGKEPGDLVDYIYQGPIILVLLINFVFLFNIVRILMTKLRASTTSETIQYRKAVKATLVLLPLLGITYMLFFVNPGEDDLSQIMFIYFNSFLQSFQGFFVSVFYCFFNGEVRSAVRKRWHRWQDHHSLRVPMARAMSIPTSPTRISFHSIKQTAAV
Test: cell-based or functional assay

How did the EC50 [nM], 0% HSA (cAMP, HTRF) turn out when B1 was run?
The EC50 [nM], 0% HSA (cAMP, HTRF) was 2.98 nM.

Which EC50 [nM], 0% HSA (cAMP, HTRF) does the source give for B2 here?
Its EC50 [nM], 0% HSA (cAMP, HTRF) is 0.94 nM.

With B3 as the binder, how does the EC50 [nM], 0% HSA (cAMP, HTRF) read?
The EC50 [nM], 0% HSA (cAMP, HTRF) was 0.15 nM.

For B4, which EC50 [nM], 0% HSA (cAMP, HTRF) is on record?
The EC50 [nM], 0% HSA (cAMP, HTRF) was 0.09 nM.

With B5 as the binder, how does the EC50 [nM], 0% HSA (cAMP, HTRF) read?
Its EC50 [nM], 0% HSA (cAMP, HTRF) is 4.48 nM.

Which EC50 [nM], 0% HSA (cAMP, HTRF) does the source give for B6 here?
The EC50 [nM], 0% HSA (cAMP, HTRF) was 0.19 nM.

Reference: patent publication US12679878B2, “CRF2 receptor agonists and their use in therapy” (SANOFI, priority 2020, dated 2026)
